# Article PMC10530080
# Molecular target: recombinant human ATM, wild type (N-terminal FLAG-FKBP1A) (human) (UniProt Q13315)
# Sequence of UniProt Q13315 (Q13315 whole entry): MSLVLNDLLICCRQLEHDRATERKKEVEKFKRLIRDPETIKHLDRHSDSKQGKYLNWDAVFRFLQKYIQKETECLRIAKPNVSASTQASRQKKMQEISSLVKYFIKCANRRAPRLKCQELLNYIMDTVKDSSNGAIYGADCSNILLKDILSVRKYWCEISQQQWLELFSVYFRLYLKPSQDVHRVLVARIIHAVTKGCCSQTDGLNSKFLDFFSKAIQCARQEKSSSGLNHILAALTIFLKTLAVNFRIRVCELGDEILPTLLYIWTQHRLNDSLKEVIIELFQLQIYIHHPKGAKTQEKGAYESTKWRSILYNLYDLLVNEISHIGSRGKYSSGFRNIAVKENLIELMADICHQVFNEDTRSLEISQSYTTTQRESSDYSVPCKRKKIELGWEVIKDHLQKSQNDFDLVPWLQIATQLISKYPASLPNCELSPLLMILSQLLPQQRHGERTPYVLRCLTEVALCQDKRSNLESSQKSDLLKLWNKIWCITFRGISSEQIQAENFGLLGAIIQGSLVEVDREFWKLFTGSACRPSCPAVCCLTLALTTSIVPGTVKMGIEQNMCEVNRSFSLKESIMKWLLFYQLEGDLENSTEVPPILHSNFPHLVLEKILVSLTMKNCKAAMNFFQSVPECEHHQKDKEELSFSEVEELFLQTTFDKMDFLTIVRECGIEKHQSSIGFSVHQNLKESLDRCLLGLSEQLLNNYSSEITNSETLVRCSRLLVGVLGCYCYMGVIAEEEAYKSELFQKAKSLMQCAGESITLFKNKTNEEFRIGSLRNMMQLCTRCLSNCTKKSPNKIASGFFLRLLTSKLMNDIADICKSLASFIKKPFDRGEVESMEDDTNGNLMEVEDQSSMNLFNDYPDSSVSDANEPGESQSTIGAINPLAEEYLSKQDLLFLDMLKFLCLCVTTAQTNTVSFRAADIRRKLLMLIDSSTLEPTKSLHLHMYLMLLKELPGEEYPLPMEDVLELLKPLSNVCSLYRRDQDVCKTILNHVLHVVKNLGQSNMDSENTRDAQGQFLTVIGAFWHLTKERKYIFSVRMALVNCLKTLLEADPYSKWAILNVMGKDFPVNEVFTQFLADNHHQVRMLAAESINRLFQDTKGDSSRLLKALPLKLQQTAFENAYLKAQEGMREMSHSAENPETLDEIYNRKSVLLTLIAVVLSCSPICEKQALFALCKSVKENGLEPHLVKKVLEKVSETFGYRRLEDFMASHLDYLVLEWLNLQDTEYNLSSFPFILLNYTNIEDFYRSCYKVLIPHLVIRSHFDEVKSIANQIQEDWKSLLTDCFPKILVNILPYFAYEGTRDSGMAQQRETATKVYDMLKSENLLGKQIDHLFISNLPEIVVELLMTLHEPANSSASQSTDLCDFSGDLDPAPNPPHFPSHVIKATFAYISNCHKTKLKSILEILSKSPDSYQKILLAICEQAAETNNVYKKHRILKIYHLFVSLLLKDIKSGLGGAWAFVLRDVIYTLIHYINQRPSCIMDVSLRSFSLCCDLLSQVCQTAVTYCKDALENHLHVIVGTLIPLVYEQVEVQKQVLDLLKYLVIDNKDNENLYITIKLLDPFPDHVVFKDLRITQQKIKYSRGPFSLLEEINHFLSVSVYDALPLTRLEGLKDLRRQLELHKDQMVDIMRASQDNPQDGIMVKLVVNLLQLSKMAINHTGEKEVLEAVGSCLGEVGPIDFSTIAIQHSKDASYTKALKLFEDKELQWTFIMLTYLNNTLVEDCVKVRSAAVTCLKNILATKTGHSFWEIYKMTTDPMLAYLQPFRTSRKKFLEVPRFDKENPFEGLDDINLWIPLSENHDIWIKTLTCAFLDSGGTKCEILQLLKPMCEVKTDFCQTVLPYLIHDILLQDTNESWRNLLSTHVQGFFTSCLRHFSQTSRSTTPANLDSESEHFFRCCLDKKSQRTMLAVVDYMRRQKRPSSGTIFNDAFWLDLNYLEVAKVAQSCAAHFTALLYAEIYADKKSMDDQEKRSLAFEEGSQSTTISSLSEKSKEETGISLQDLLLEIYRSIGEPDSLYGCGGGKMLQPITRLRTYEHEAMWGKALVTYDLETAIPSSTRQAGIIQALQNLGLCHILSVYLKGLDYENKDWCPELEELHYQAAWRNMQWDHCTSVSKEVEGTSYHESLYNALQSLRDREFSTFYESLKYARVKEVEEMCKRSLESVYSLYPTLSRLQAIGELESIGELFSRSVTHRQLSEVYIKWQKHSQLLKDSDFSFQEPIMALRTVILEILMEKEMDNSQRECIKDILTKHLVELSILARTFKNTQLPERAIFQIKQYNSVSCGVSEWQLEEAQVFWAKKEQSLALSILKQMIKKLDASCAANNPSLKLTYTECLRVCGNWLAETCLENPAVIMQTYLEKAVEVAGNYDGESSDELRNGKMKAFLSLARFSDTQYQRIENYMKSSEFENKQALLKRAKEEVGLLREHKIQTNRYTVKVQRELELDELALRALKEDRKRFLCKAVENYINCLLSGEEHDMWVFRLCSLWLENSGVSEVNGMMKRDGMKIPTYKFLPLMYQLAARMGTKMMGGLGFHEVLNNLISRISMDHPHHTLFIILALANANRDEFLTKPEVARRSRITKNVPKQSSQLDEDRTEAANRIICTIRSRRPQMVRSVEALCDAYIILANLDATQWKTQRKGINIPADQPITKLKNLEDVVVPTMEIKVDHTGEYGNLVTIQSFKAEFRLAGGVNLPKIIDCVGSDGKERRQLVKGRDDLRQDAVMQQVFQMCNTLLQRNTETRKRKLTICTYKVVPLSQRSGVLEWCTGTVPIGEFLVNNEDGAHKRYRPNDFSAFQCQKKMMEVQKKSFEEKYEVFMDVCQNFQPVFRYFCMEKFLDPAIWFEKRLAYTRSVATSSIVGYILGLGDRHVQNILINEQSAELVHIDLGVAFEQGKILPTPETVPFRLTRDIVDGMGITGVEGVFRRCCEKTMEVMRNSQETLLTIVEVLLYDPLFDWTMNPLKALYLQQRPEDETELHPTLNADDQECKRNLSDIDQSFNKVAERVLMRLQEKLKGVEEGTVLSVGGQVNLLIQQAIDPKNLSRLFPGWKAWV
substance,measurement,value
His-MBP-TEV-p53(1-102) (from UniProt P04637 1-102) (domain or fragment),"KM for p53 substrate, ATM activated by H2O2 (Phos-tag gel kinase assay, Michaelis-Menten)",29 µM
same,"KM for p53 substrate, basal conditions (Phos-tag gel kinase assay, Michaelis-Menten)",80 µM
same,"KM for p53 substrate, in the presence of MRN and 350-base pair dsDNA (Phos-tag gel kinase assay, Michaelis-Menten)",24 µM
